Entries after “also recorded” stand apart in the source; their conditions may differ.
What was measured:
[1] = biological target: T1, human CRP (Homo sapiens, UniProt P02741); assay: Polypeptide blocking of human CRP inhibition of leptin-stimulated STAT3 tyrosine phosphorylation in HEK-293 cells over-expressing OB-Rb; format: cell-based; details: for restoration of leptin-stimulated STAT3 activation in presence of human CRP, Example 8 comparison: human CRP 8 μg/ml, human leptin 2 nM, 1 hour pre-incubation, up to 0.8 μM (800 nM); for effect of polypeptide by itself on STAT phosphorylation: control, polypeptide alone; for blocking of the inhibitory effect of human CRP on leptin signaling (STAT3 tyrosine phosphorylation): polypeptide pre-incubated with human CRP 30 minutes, then human leptin 45 minutes
T1 construct: purchased CHEMICON or EMD Biosciences
T1 sequence (P02741 19-224): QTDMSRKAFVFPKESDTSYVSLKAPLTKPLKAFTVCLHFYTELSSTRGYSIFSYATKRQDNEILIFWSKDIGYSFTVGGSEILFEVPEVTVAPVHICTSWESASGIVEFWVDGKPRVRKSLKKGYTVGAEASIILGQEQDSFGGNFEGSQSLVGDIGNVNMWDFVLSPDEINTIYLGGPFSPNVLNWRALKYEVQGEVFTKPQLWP
Description: In the in vitro experiment, each of these polypeptide was pre-incubated with human CRP for 30 minutes before being mixed with human leptin for an additional 45 minutes. The resultant mixture was then added to the HEK-293 cells over-exprssing the long form leptin receptors, OB-Rb. After a 30-minute incubation, the cells were harvested in a protein extraction buffer (18). The signaling of leptin in the cells, measured by its ability to stimulate tyrosine phosphorylation on STAT3 in a western blot assay, was evaluated (see FIGS. 8, 9, 10 for polypeptides B, C1 and E, respectively).
Pursuant to an in vitro protocol similar to that described in Example 6, a hexamer disclosed in U.S. Pat. No. 6,777,388, NH2—S—C—H-L-P—W—COOH (SEQ ID NO:18), was pre-incubated with human CRP (8 μg/ml) and human leptin (2 nM) for 1 hour. The resultant mixture then was added to HEK-293 cells that over-expressed the long form leptin receptor, OB—Rb. After a 30-minute incubation, the cells were harvested in a protein extraction buffer. To evaluate signaling of human leptin in the cells, tyrosine phosphorylation on STAT3 was measured in a western blot assay.

[2] = system: ob/ob mice; assay: Co-infusion of polypeptide E with human CRP and leptin through mini-osmotic pumps into ob/ob mice; format: in vivo, mouse; details: for restoration of satiety and weight-reducing effects of human leptin (food intake, body weight): Pep-E 24 or 48 μg/day/mouse with human CRP 48 μg/day/mouse and leptin 12 μg/day/mouse
Description: FIG. 11. […] Infusion dosages for human CRP and leptin were 48 μg/day/mouse and 12 μg/day/mouse, respectively. The infusion rate for Pep-E (P) was 24 μg/day/mouse (medium dosage, “m”) and 48 μg/day/mouse (high dosage, “h”). Food-intake (A and C) and body weight (B and D) were monitored daily throughout the infusion. The arrows in A-D indicate the day of surgery. At the end of infusion, blood samples were collected for the measurement of blood-glucose, human CRP, and human leptin. The serum concentrations of human CRP and human leptin were 0.85±0.1 μg/ml and 18 ng±2 ng/ml, respectively. […] Also shown is glucose concentration from mice infused with human CRP and leptin but not with Pep-E.
In the in vivo experiment, polypeptide E was co-infused through mini-osmotic pumps with human CRP and leptin into the ob/ob mice. Food intake in the period of 24 hours and body weight were followed during the infusion period (FIGS. 11A-11D).

[3] = biological target: long-form human leptin receptor, OB-Rb (human) (UniProt P48357); assay: 125I-human leptin binding to HEK293 cells stably transfected with human OB-Rb
[4] = system: tyrosine phosphorylation of STAT3; assay: Leptin-induced tyrosine phosphorylation of STAT3 in HEK293 cells over-expressing OB-Rb in the presence of CRP (Western blot); format: cell-based, human; details: separate control, concentrations much higher than CRP
Description: To determine if the interaction between CRP and leptin dampens the cellular actions of leptin, the ability of leptin to stimulate tyrosine phosphorylation of STAT3 and PI3-kinase activity was assessed in the presence of CRP in vitro. HEK293 cells over-expressing OB-Rb were serum starved for 2 hours before addition of leptin and CRP (CHEMICON or EMD Biosciences). Leptin, in the presence or absence of CRP, was pre-incubated in μ-MEM (with additional 1 mM Ca^2+) for 30 minutes at 37° C. before being applied to the cells. After a 30-minute incubation with leptin, the cells were harvested in lysis buffer (18). The resultant protein extract was subjected to a Western blot analysis using an anti-phospho-STAT3 specific antibody (Cell Signaling, Beverly, Mass.). For studies involving primary hypothalamic neurons, the hypothalamus from rats was surgically isolated immediately after euthanasia, and placed in the DMEM for incubation with leptin in the presence or absence of CRP.

[5] = biological target: T2, human leptin (human, UniProt P41159 22-167, 125I-labelled (Iodogen method) in the receptor binding assay of Example 3); assay: human CRP pre-incubated with 125I-human leptin (~2 ng/ml); inhibition of leptin binding to OB-Rb on HEK293 cells
T2 construct: Recombinant human leptin from AF Parlow, NHPP; also called recombinant human leptin
Description: After 10-minute incubation at room temperature, the reaction was stopped with 100 μl 0.1% trifluoroacetic acid (TFA). The reaction mixture was immediately purified by reverse-phase HPLC. The separation employed a 5-minute isocratic step at 20% eluant B in A, followed by two consecutive 30 min linear gradients from 20 to 50%, then from 50 to 60% eluant B in A (where eluant A is water containing 0.1% TFA and eluant B is acetonitrile containing 0.1% TFA) at a flow rate of 1.5 ml/min. […] The incubation would last for 3 hour at 4° C. before the media was aspirated and the cells were dissolved in 0.1N NaOH for scintillation counting.

[6] = biological target: T3, rat C-reactive protein (rat, UniProt P48199 20-230); assay: rat serum on mouse leptin-Sepharose affinity column; eluted band identified by MALDI-TOF
T3 construct: mature; also called rat CRP; rat SLIP-1
T3 sequence (looked up): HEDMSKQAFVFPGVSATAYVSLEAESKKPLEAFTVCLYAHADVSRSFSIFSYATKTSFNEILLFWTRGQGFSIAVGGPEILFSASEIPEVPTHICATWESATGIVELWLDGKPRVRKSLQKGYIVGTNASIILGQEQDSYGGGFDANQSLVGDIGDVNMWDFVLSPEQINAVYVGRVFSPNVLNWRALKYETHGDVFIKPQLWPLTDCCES
Description: Retained material was eluted with an acidic glycine solution, and the eluate was immediately neutralized in a Tris-buffer (50 mM, pH=9.5).
The mass-spec assay was performed on Thermo Finnigan LTQ mass spectrometer by CTO-BIO Services (Rockville, Md.). Data analysis was carried out with the Turbo-Sequest software.

[7] = system: ob/ob mice; assay: Intracerebralventricular (i.c.v.) injection of human CRP and leptin in ob/ob mice, food intake and body weight; format: in vivo, mouse
[8] = mouse leptin i.c.v. after human CRP

Sequence of long-form human leptin receptor, OB-Rb (human) (P48357 22-1165): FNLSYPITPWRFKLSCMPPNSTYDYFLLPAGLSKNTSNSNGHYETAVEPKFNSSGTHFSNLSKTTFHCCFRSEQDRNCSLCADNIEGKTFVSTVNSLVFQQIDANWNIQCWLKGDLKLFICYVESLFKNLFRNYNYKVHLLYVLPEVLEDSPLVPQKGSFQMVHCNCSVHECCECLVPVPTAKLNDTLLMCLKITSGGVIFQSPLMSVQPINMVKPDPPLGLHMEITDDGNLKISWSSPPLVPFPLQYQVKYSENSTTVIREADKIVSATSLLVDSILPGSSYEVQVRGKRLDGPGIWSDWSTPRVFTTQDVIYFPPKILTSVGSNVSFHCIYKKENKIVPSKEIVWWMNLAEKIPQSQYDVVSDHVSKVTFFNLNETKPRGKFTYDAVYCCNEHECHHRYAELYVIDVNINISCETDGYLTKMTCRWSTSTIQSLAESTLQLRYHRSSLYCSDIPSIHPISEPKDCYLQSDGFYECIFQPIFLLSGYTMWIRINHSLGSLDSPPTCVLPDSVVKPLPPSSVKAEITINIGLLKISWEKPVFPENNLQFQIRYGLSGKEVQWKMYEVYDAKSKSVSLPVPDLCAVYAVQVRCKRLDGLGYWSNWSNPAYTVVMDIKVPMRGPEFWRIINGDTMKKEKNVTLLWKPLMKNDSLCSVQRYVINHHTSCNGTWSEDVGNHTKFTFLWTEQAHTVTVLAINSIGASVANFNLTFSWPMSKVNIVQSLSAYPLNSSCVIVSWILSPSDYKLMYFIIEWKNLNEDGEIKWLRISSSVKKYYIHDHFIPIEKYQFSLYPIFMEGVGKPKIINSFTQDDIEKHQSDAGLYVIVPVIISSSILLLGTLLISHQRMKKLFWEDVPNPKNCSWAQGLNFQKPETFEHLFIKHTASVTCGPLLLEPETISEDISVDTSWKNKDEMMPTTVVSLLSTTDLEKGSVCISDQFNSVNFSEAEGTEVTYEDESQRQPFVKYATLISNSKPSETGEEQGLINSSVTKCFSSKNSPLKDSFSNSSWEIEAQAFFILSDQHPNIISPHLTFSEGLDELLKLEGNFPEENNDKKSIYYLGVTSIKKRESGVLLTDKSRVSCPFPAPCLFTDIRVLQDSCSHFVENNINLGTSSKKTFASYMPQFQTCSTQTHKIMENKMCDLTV

“H-WPLHCS-OH [D-form, reference compound]” was tested, and the “restoration of leptin-stimulated STAT3 activation in presence of human CRP, Example 8 comparison” value (from here on “restoration … Example 8 comparison”) [1] was “failed to restore”.

“KVQDDTKTLIKTIVTRINDISHTQS (listed as Homo sapiens) [polypeptide B, chemically synthesized human leptin-derived polypeptide, residues 26 to 50]” was tested, and the “effect of polypeptide by itself on STAT phosphorylation” value (“effect of polypeptide by itself” for short) [1] was “did not induce any changes; also recorded: does not have any effect” and the “blocking of the inhibitory effect of human CRP on leptin signaling (STAT3 tyrosine phosphorylation)” value [1] was “able to block the inhibitory effect of human CRP and to restore leptin signaling”.

With “LAFSKSCHLPWASGLETLDSLGGVLEA (listed as Homo sapiens) [polypeptide E, chemically synthesized human leptin-derived polypeptide, residues 111 to 137]” the “effect of polypeptide by itself” value [1] was “did not induce any changes; also recorded: does not have any effect”, the “effect of polypeptide by itself” value ([1]; listed as Peptide-E) was “did not induce any changes” and the “restoration … Example 8 comparison” value [1] was “able to restore”. The “restoration … Example 8 comparison” value ([1]; listed as Peptide-E) was “blocked the inhibitory effect”, the “blocking of the inhibitory effect of human CRP on leptin signaling (STAT3 tyrosine phosphorylation)” value [1] was “able to block the inhibitory effect of human CRP and to restore leptin signaling” and the “restoration of satiety and weight-reducing effects of human leptin (food intake, body weight)” value [2] was “able to restore both of these functions”. For the same molecule, the “restoration of satiety and weight-reducing effects of human leptin (food intake, body weight)” value ([2]; listed as Peptide-E) was “restored the physiological effects of human leptin” and the “restoration of effect of human leptin on blood glucose” value ([2]; end of infusion, high dosage Pep-E) was “able to restore the beneficial effect”.

With “NH2—S—C—H-L-P—W—COOH (H-SCHLPW-OH) [hexamer, hexamer disclosed in U.S. Pat. No. 6,777,388, reference compound]” the “restoration … Example 8 comparison” value [1] was “unable to block” and the “restoration … Example 8 comparison” value ([1]; listed as L-form) was “failed to restore”.

In the case of “VSSKQKVTGLDFIPGLHPILTLSKM (listed as Homo sapiens) [polypeptide C1, chemically synthesized human leptin-derived polypeptide, residues 51 to 75]”, the “concentration at which the maximal effect can be reached” value ([1]; FIG. 9A) is reported as 50 nM, the “effect of higher concentration” value ([1]; FIG. 9B) is reported as “does not further improve its effect” and the “relative effectiveness in blocking the CRP activity on leptin” value ([1]; compared with the other polypeptides) is reported as “more effective at a lower concentration”. For the same molecule, the “effect of polypeptide by itself” value [1] was “did not induce any changes; also recorded: does not have any effect” and the “blocking of the inhibitory effect of human CRP on leptin signaling (STAT3 tyrosine phosphorylation)” value [1] was “able to block the inhibitory effect of human CRP and to restore leptin signaling”.

Work on “human leptin (from UniProt P41159 22-167) (ligand)” yielded a Kd [3] of 1 nM.

For “human serum amyloid P component: control serum protein circulating at much higher concentrations than CRP [reference compound]”, the “effect of control serum protein on leptin-induced STAT3 phosphorylation / leptin signaling” value [4] was “did not influence leptin signaling”.

B1: human C-reactive protein (other, UniProt P02741 19-224, looked up)
chain: QTDMSRKAFVFPKESDTSYVSLKAPLTKPLKAFTVCLHFYTELSSTRGYSIFSYATKRQDNEILIFWSKDIGYSFTVGGSEILFEVPEVTVAPVHICTSWESASGIVEFWVDGKPRVRKSLKKGYTVGAEASIILGQEQDSFGGNFEGSQSLVGDIGNVNMWDFVLSPDEINTIYLGGPFSPNVLNWRALKYEVQGEVFTKPQLWP
notes: also called human CRP; CRP
B1 was tested, and the IC50 [5] was ~0.08 µg/mL and the “molecular ratio (CRP:leptin) at the IC50” value [5] was 5.8.

B2: mouse leptin (ligand, UniProt P41160 22-167, looked up)
chain: VPIQKVQDDTKTLIKTIVTRINDISHTQSVSAKQRVTGLDFIPGLHPILSLSKMDQTLAVYQQVLTSLPSQNVLQIANDLENLRDLLHLLAFSKSCSLPQTSGLQKPESLDGVLEASLYSTEVVALSRLQGSLQDILQQLDVSPEC
modifications: 125I-labelled in the receptor binding assay of FIG. 4B
notes: also called murine-leptin; recombinant mouse leptin
B2: binds [6].

B3: Mouse leptin: mouse recombinant leptin (protein)
chain: VPIQKVQDDTKTLIKTIVTRINDISHTQSVSAKQRVTGLDFIPGLHPILSLSKMDQTLAVYQQVLTSLPSQNVLQIANDLENLRDLLHLLAFSKSCSLPQTSGLQKPESLDGVLEASLYSTEVVALSRLQGSLQDILQQLDVSPEC
With B3 the “decrease of food intake, PBS pre-injection” value ([7]; mouse leptin i.c.v. after PBS) was 32.9%, the “reduction of body weight, PBS pre-injection” value ([7]; mouse leptin i.c.v. after PBS) was 1.80% and the “decrease of food intake, human CRP pre-injection” value [7, 8] was 32.4%. The “reduction of body weight, human CRP pre-injection” value [7, 8] was 1.76%.
